Values of other authors as cited in paper PMC10373500.

Target: Asp76 (UniProt position 102, GSPGADRVVFN)

## Ribonuclease T1 (RNase T1) (not stated in the article (Aspergillus oryzae from outside knowledge))
  pKa: 0.5
